# Laboratory results taken from the Immune Epitope Database (IEDB).
# Tests used:
# HLA-A*02:01 [1] = test: IEDB peptide-MHC binding, purified MHC/direct/fluorescence; filed as Kd, often an IC50 or EC50 that approximates it; ≥ and ≤ were set here for values at or beyond the usual limits of such assays
# HLA-A*69:01 = test: as above
# HLA-C*08:02 = test: as above
# HLA-B*07:02 [2] = test: IEDB peptide-MHC binding, purified MHC/competitive/fluorescence; filed as Kd, often an IC50 or EC50 that approximates it; ≥ and ≤ were set here for values at or beyond the usual limits of such assays; settings: source organism: Bacillus anthracis str. A2012
# HLA-B*35:01 [3] = test: as above; settings: source organism: Bacillus anthracis str. A2012
# HLA-B*51:01 = test: as above; settings: source organism: Bacillus anthracis str. A2012
# HLA-A*01:01 [4] = test: IEDB peptide-MHC binding, purified MHC/direct/fluorescence; filed as Kd, often an IC50 or EC50 that approximates it; ≥ and ≤ were set here for values at or beyond the usual limits of such assays
# HLA-A*03:01 = test: as above
# HLA-A*26:01 [5] = test: as above; settings: source organism: Vibrio parahaemolyticus RIMD 2210633
# HLA-A*31:01 = test: as above
# HLA-B*08:02 = test: as above; settings: source organism: Vibrio parahaemolyticus RIMD 2210633
# HLA-B*15:17 = test: as above
# HLA-B*18:01 = test: as above
# HLA-B*27:05 = test: as above
# HLA-B*39:01 = test: as above; settings: source organism: Vibrio parahaemolyticus RIMD 2210633
# HLA-B*40:01 = test: as above
# HLA-B*46:01 [6] = test: as above
# HLA-B*48:01 = test: as above
# HLA-B*57:01 [7] = test: as above
# HLA-B*58:01 = test: as above
# HLA-A*11:01 [8] = test: IEDB peptide-MHC binding, purified MHC/competitive/fluorescence; filed as Kd, often an IC50 or EC50 that approximates it; ≥ and ≤ were set here for values at or beyond the usual limits of such assays
# HLA-B*15:01 [9] = test: as above; settings: source organism: Vibrio parahaemolyticus K5030
# HLA-B*35:01 [10] = test: IEDB peptide-MHC binding, purified MHC/direct/fluorescence; filed as Kd, often an IC50 or EC50 that approximates it; ≥ and ≤ were set here for values at or beyond the usual limits of such assays; settings: source organism: Vibrio vulnificus YJ016
# HLA-C*06:02 = test: as above; settings: source organism: Vibrio vulnificus YJ016
# HLA-C*12:03 = test: as above
# HLA-B*15:42 = test: IEDB peptide-MHC binding, purified MHC/competitive/fluorescence; filed as Kd, often an IC50 or EC50 that approximates it; ≥ and ≤ were set here for values at or beyond the usual limits of such assays; settings: source organism: Vibrio vulnificus YJ016
# HLA-B*45:06 = test: as above; settings: source organism: Vibrio vulnificus YJ016
# HLA-B*46:01 [11] = test: as above; settings: source organism: Vibrio vulnificus YJ016
# HLA-B*83:01 = test: as above; settings: source organism: Vibrio vulnificus YJ016
# HLA-C*04:01 = test: as above; settings: source organism: Vibrio vulnificus YJ016
# HLA-C*14:02 = test: as above; settings: source organism: Vibrio vulnificus YJ016
# HLA-A*01:01 [12] = test: IEDB peptide-MHC binding, purified MHC/competitive/fluorescence; ≥ and ≤ were set here for values at or beyond the usual limits of such assays; settings: source organism: Zaire ebolavirus
# HLA-A*02:01 [13] = test: IEDB peptide-MHC binding, purified MHC/competitive/radioactivity; ≥ and ≤ were set here for values at or beyond the usual limits of such assays; settings: source organism: Homo sapiens
# HLA-A*11:01 [14] = test: IEDB peptide-MHC binding, purified MHC/direct/fluorescence; filed as Kd, often an IC50 or EC50 that approximates it; ≥ and ≤ were set here for values at or beyond the usual limits of such assays
# HLA-B*15:01 [15] = test: as above
# HLA-B*44:02 = test: IEDB peptide-MHC binding, purified MHC/competitive/radioactivity; filed as Kd, often an IC50 or EC50 that approximates it; ≥ and ≤ were set here for values at or beyond the usual limits of such assays; settings: source organism: Homo sapiens
# HLA-B*44:03 = test: as above; settings: source organism: Homo sapiens
# HLA-B*57:01 [16] = test: as above; settings: source organism: Homo sapiens
# HLA-B*07:02 [17] = test: IEDB peptide-MHC binding, purified MHC/direct/fluorescence; filed as Kd, often an IC50 or EC50 that approximates it; ≥ and ≤ were set here for values at or beyond the usual limits of such assays; settings: source organism: Mycobacterium tuberculosis
# HLA-A*02:06 = test: IEDB peptide-MHC binding, purified MHC/competitive/fluorescence; filed as Kd, often an IC50 or EC50 that approximates it; ≥ and ≤ were set here for values at or beyond the usual limits of such assays; settings: source organism: Mycobacterium tuberculosis C
# HLA-A*26:01 [18] = test: as above; settings: source organism: Mycobacterium tuberculosis C
# HLA-A*26:02 = test: as above; settings: source organism: Mycobacterium tuberculosis C
# HLA-A*68:02 = test: as above; settings: source organism: Mycobacterium tuberculosis C
# [19] = source organism: Camelpox virus M-96
# [20] = source organism: Vibrio parahaemolyticus
# [21] = source organism: Mycobacterium tuberculosis
sequence,measurement,setting,value
YLSSWTPVV,Kd,HLA-A*02:01 [1]; [19],≤ 1 nM
same,Kd,HLA-A*69:01; [19],154 nM
same,Kd,HLA-C*08:02; source organism: Variola virus,74 nM
YPIVIAPAM,Kd,HLA-B*07:02 [2],13.8 nM
same,Kd,HLA-B*35:01 [3],≤ 0.1 nM
same,Kd,HLA-B*51:01,1010 nM
NSSYWRQGY,Kd,HLA-A*01:01 [4]; [20],93 nM
same,Kd,HLA-A*02:01 [1]; [20],≥ 20000 nM
same,Kd,HLA-A*03:01; [20],≥ 20000 nM
same,Kd,HLA-A*26:01 [5],160 nM
same,Kd,HLA-A*31:01; [20],≥ 20000 nM
same,Kd,HLA-A*69:01; [20],≥ 20000 nM
same,Kd,HLA-B*08:02,≥ 20000 nM
same,Kd,HLA-B*15:17; [20],222 nM
same,Kd,HLA-B*18:01; [20],≥ 20000 nM
same,Kd,HLA-B*27:05; [20],≥ 20000 nM
same,Kd,HLA-B*39:01,≥ 20000 nM
same,Kd,HLA-B*40:01; [20],≥ 20000 nM
same,Kd,HLA-B*46:01 [6]; [20],≥ 20000 nM
same,Kd,HLA-B*48:01; [20],≥ 20000 nM
same,Kd,HLA-B*57:01 [7]; [20],≥ 20000 nM
same,Kd,HLA-B*58:01; [20],≥ 20000 nM
same,Kd,HLA-A*11:01 [8]; source organism: Vibrio parahaemolyticus K5030,≥ 20000 nM
same,Kd,HLA-B*15:01 [9],≥ 20000 nM
YTMELCGAM,Kd,HLA-B*35:01 [10],28 nM
same,Kd,HLA-C*06:02,≥ 20000 nM
same,Kd,HLA-C*12:03; source organism: Vibrio vulnificus YJ016,88 nM
same,Kd,HLA-B*15:42,≥ 5000 nM
same,Kd,HLA-B*45:06,≥ 5000 nM
same,Kd,HLA-B*46:01 [11],18 nM
same,Kd,HLA-B*83:01,≥ 5000 nM
same,Kd,HLA-C*04:01,≥ 5000 nM
same,Kd,HLA-C*14:02,≤ 0.1 nM
GPFDAVLYY,IC50,HLA-A*01:01 [12],≥ 172000 nM
SCSRAIPQV,IC50,HLA-A*02:01 [13],1470 nM
RQASLSISV,IC50,HLA-A*02:01 [13],284 nM
YTAVVPLVY,Kd,HLA-A*01:01 [4]; source organism: Homo sapiens,143 nM
same,Kd,HLA-A*03:01; source organism: Homo sapiens,4540 nM
same,Kd,HLA-A*11:01 [14]; source organism: Homo sapiens,2500 nM
same,Kd,HLA-A*69:01; source organism: Homo sapiens,1310 nM
same,Kd,HLA-B*15:01 [15]; source organism: Homo sapiens,410 nM
same,Kd,HLA-B*58:01; source organism: Homo sapiens,63.1 nM
same,Kd,HLA-C*08:02; source organism: Homo sapiens,≥ 20000 nM
same,Kd,HLA-C*12:03; source organism: Homo sapiens,171 nM
same,Kd,HLA-B*44:02,7780 nM
same,Kd,HLA-B*44:03,5540 nM
same,Kd,HLA-B*57:01 [16],208 nM
AVFPRYHPR,Kd,HLA-A*01:01 [4]; [21],≥ 20000 nM
same,Kd,HLA-A*11:01 [14]; [21],38 nM
same,Kd,HLA-A*31:01; [21],4.7 nM
same,Kd,HLA-A*69:01; [21],≥ 20000 nM
same,Kd,HLA-B*07:02 [17],≥ 20000 nM
same,Kd,HLA-B*15:01 [15]; [21],≥ 20000 nM
same,Kd,HLA-B*15:17; [21],≥ 20000 nM
same,Kd,HLA-B*18:01; [21],≥ 20000 nM
same,Kd,HLA-B*27:05; [21],≥ 20000 nM
same,Kd,HLA-B*40:01; [21],≥ 20000 nM
same,Kd,HLA-B*46:01 [6]; [21],≥ 20000 nM
same,Kd,HLA-B*48:01; [21],≥ 20000 nM
same,Kd,HLA-B*57:01 [7]; [21],≥ 20000 nM
same,Kd,HLA-B*58:01; [21],≥ 20000 nM
same,Kd,HLA-A*02:06,2100 nM
same,Kd,HLA-A*26:01 [18],1670 nM
same,Kd,HLA-A*26:02,≥ 20000 nM
same,Kd,HLA-A*68:02,1910 nM
LTESDMDYH,IC50,HLA-A*01:01 [12],41600 nM
SFGGFTFK,Kd,HLA-A*11:01 [8]; source organism: Influenza A virus H3N2,44.8 nM
